Assay results taken from the MegaScale stability set (Tsuboyama et al. 2023).

B1: 5KPH (parent)
chain: EEKRQVKQVAKEKLLEQSPNSKVQVRRVQKQGNTIRVELELRTNGKKENYTVEVERQGNTWTVKRITRT
B2: EEHEE_rd3_0130 (parent)
chain: TKIIVNGKTFTAPTEEEAQKIAEKLAKKAGLTVHKKNGTFELK

Variants of: B1
Test: folding stability dG (cDNA display proteolysis); higher = more stable
Conditions: PBS, room temperature
With L15N the “folding stability dG” value was 2.5 kcal/mol. With L15A the “folding stability dG” value was 2.99 kcal/mol. With L15F the “folding stability dG” value was 3.03 kcal/mol. In the case of S21I, the “folding stability dG” value is reported as 2.46 kcal/mol. With S21W the “folding stability dG” value was 2.89 kcal/mol. In the case of N33I, the “folding stability dG” value is reported as 3.38 kcal/mol. With N33M the “folding stability dG” value was 3.74 kcal/mol. With V9D the “folding stability dG” value was 1.82 kcal/mol. With V9S the “folding stability dG” value was 2.4 kcal/mol. For K64S, the “folding stability dG” value was 3.94 kcal/mol. With K3E the “folding stability dG” value was 4.84 kcal/mol. In the case of G58V, the “folding stability dG” value is reported as 3.02 kcal/mol. For R68K, the “folding stability dG” value was 3.99 kcal/mol. In the case of R68Q, the “folding stability dG” value is reported as 3.73 kcal/mol. With R68C the “folding stability dG” value was 3.34 kcal/mol. In the case of V37H, the “folding stability dG” value is reported as -0.646 kcal/mol. With G45T the “folding stability dG” value was 3.49 kcal/mol. For R56M, the “folding stability dG” value was 3.61 kcal/mol. With R56T the “folding stability dG” value was 2.83 kcal/mol. With R56D the “folding stability dG” value was 2.42 kcal/mol. In the case of R56C, the “folding stability dG” value is reported as 3.59 kcal/mol. In the case of G32F, the “folding stability dG” value is reported as 3.33 kcal/mol. For G32R, the “folding stability dG” value was 3.03 kcal/mol. In the case of G32D, the “folding stability dG” value is reported as 3.3 kcal/mol. For Q57F, the “folding stability dG” value was 3.88 kcal/mol. In the case of Q57R, the “folding stability dG” value is reported as 3.73 kcal/mol. For Q57A, the “folding stability dG” value was 3.81 kcal/mol. For S18L, the “folding stability dG” value was 4.03 kcal/mol. For K22T, the “folding stability dG” value was 4.16 kcal/mol. With V54Q the “folding stability dG” value was 0.909 kcal/mol. In the case of T62A, the “folding stability dG” value is reported as 4.05 kcal/mol. For Q17H, the “folding stability dG” value was 4.04 kcal/mol. For V63Y, the “folding stability dG” value was 2.01 kcal/mol. In the case of V63L, the “folding stability dG” value is reported as 2.88 kcal/mol. For K13E, the “folding stability dG” value was 2.79 kcal/mol. With K13W the “folding stability dG” value was 3.48 kcal/mol. For W61C, the “folding stability dG” value was 2.68 kcal/mol. In the case of W61H, the “folding stability dG” value is reported as 2.59 kcal/mol. In the case of W61Q, the “folding stability dG” value is reported as 1.88 kcal/mol. In the case of T43C, the “folding stability dG” value is reported as 3.24 kcal/mol. With T43Q the “folding stability dG” value was 3.91 kcal/mol. In the case of K11D, the “folding stability dG” value is reported as 1.94 kcal/mol. With K11H the “folding stability dG” value was 2.85 kcal/mol. With K11M the “folding stability dG” value was 4.37 kcal/mol. In the case of K11A, the “folding stability dG” value is reported as 3.8 kcal/mol. For T69R, the “folding stability dG” value was 3.89 kcal/mol. With T69S the “folding stability dG” value was 3.75 kcal/mol. With K47D the “folding stability dG” value was 2.91 kcal/mol. With K47L the “folding stability dG” value was 4.04 kcal/mol. For E38S, the “folding stability dG” value was 3.89 kcal/mol. With K7E the “folding stability dG” value was 4.5 kcal/mol. In the case of K7I, the “folding stability dG” value is reported as 4.82 kcal/mol. For K7Y, the “folding stability dG” value was 3.86 kcal/mol. With Y50P the “folding stability dG” value was -0.674 kcal/mol. For Y50E, the “folding stability dG” value was -0.081 kcal/mol. In the case of L39R, the “folding stability dG” value is reported as -0.147 kcal/mol. For V25W, the “folding stability dG” value was 2.7 kcal/mol. For V25R, the “folding stability dG” value was 1.71 kcal/mol. For V25F, the “folding stability dG” value was 3.77 kcal/mol. With V52W the “folding stability dG” value was 1.58 kcal/mol. For E53G, the “folding stability dG” value was 2.14 kcal/mol. With E53Y the “folding stability dG” value was 4.21 kcal/mol. For V6R, the “folding stability dG” value was 1.97 kcal/mol. With Q31L the “folding stability dG” value was 4.27 kcal/mol. For Q31T, the “folding stability dG” value was 4.12 kcal/mol. For L41S, the “folding stability dG” value was 3.24 kcal/mol. With L41Q the “folding stability dG” value was 2.91 kcal/mol. With I66G the “folding stability dG” value was 0.993 kcal/mol. With I66Q the “folding stability dG” value was 1.95 kcal/mol. For T34V, the “folding stability dG” value was 4.08 kcal/mol. For T34D, the “folding stability dG” value was 2.93 kcal/mol. In the case of T34R, the “folding stability dG” value is reported as 3.63 kcal/mol. For N20M, the “folding stability dG” value was 3.58 kcal/mol. With N20K the “folding stability dG” value was 3.55 kcal/mol. For N20Y, the “folding stability dG” value was 3.32 kcal/mol. In the case of N20R, the “folding stability dG” value is reported as 3.5 kcal/mol. In the case of N20A, the “folding stability dG” value is reported as 3.77 kcal/mol. With Q5T the “folding stability dG” value was 3.93 kcal/mol. With R27M the “folding stability dG” value was 3.43 kcal/mol. For R27N, the “folding stability dG” value was 3.56 kcal/mol. In the case of E40G, the “folding stability dG” value is reported as 2.84 kcal/mol. In the case of T60W, the “folding stability dG” value is reported as 4.16 kcal/mol. With T60V the “folding stability dG” value was 4.01 kcal/mol. In the case of T60P, the “folding stability dG” value is reported as 1.45 kcal/mol. In the case of T60L, the “folding stability dG” value is reported as 3.63 kcal/mol. With T60Y the “folding stability dG” value was 3.79 kcal/mol. In the case of E16F, the “folding stability dG” value is reported as 2.82 kcal/mol. In the case of E1C, the “folding stability dG” value is reported as 3.69 kcal/mol. In the case of E12Q, the “folding stability dG” value is reported as 4.02 kcal/mol. For E12C, the “folding stability dG” value was 3.52 kcal/mol. With E12I the “folding stability dG” value was 3.56 kcal/mol. For E55T, the “folding stability dG” value was 3.7 kcal/mol. With N44P the “folding stability dG” value was 3.4 kcal/mol. In the case of N44G, the “folding stability dG” value is reported as 3.79 kcal/mol. For I35N, the “folding stability dG” value was 2.81 kcal/mol. With N49K the “folding stability dG” value was 4.23 kcal/mol. With N49W the “folding stability dG” value was 4.2 kcal/mol. In the case of T67G, the “folding stability dG” value is reported as 3.01 kcal/mol. With R65N the “folding stability dG” value was 3.73 kcal/mol. With Q24T the “folding stability dG” value was 4.24 kcal/mol. In the case of Q24L, the “folding stability dG” value is reported as 4.38 kcal/mol. In the case of Q24I, the “folding stability dG” value is reported as 4.3 kcal/mol. In the case of Q24M, the “folding stability dG” value is reported as 4.43 kcal/mol.

Variants of: B2
Test: as above
Conditions: PBS, room temperature
For T32H, the “folding stability dG” value was 0.159 kcal/mol. With T32I the “folding stability dG” value was 0.92 kcal/mol. With T14I the “folding stability dG” value was -0.354 kcal/mol. In the case of T14Y, the “folding stability dG” value is reported as -0.419 kcal/mol. In the case of T14Q, the “folding stability dG” value is reported as -0.297 kcal/mol. In the case of T14W, the “folding stability dG” value is reported as 0.054 kcal/mol. For G7I, the “folding stability dG” value was -0.201 kcal/mol. For I4Y, the “folding stability dG” value was 0.689 kcal/mol. For I4P, the “folding stability dG” value was -0.499 kcal/mol. With I4N the “folding stability dG” value was -0.074 kcal/mol. In the case of F10W, the “folding stability dG” value is reported as 0.82 kcal/mol. With A22S the “folding stability dG” value was 0.153 kcal/mol. With G38T the “folding stability dG” value was -0.511 kcal/mol. For G38W, the “folding stability dG” value was -0.047 kcal/mol. With V33I the “folding stability dG” value was 1.13 kcal/mol. For K8I, the “folding stability dG” value was 0.962 kcal/mol. For G30V, the “folding stability dG” value was -0.549 kcal/mol. With K27H the “folding stability dG” value was 0.537 kcal/mol. In the case of T39E, the “folding stability dG” value is reported as 0.778 kcal/mol. In the case of K36L, the “folding stability dG” value is reported as 1.01 kcal/mol. In the case of E23K, the “folding stability dG” value is reported as 0.602 kcal/mol. For E23I, the “folding stability dG” value was 0.873 kcal/mol. With N6H the “folding stability dG” value was 0.793 kcal/mol. With Q19S the “folding stability dG” value was 0.739 kcal/mol. In the case of Q19P, the “folding stability dG” value is reported as -0.468 kcal/mol. With Q19L the “folding stability dG” value was 0.972 kcal/mol. With Q19W the “folding stability dG” value was 1.12 kcal/mol. With K2S the “folding stability dG” value was 0.364 kcal/mol. For K2Q, the “folding stability dG” value was 0.574 kcal/mol. For N37S, the “folding stability dG” value was -0.174 kcal/mol. With N37T the “folding stability dG” value was -0.324 kcal/mol. For A29G, the “folding stability dG” value was 0.616 kcal/mol. With A29W the “folding stability dG” value was 3.21 kcal/mol. For A29H, the “folding stability dG” value was 2.12 kcal/mol. For L42G, the “folding stability dG” value was 0.249 kcal/mol. With L42F the “folding stability dG” value was -0.203 kcal/mol. In the case of L42E, the “folding stability dG” value is reported as 0.201 kcal/mol. With A12L the “folding stability dG” value was 1.19 kcal/mol. In the case of A12K, the “folding stability dG” value is reported as -0.014 kcal/mol. In the case of V5A, the “folding stability dG” value is reported as 0.171 kcal/mol. For V5R, the “folding stability dG” value was -0.49 kcal/mol. With K20F the “folding stability dG” value was 0.767 kcal/mol. With K20S the “folding stability dG” value was 0.688 kcal/mol. In the case of K43C, the “folding stability dG” value is reported as 1.76 kcal/mol. With I3F the “folding stability dG” value was 0.035 kcal/mol. With T11I the “folding stability dG” value was 1.03 kcal/mol. For T11C, the “folding stability dG” value was 1.63 kcal/mol. For T11Q, the “folding stability dG” value was 0.319 kcal/mol. With A26L the “folding stability dG” value was 0.094 kcal/mol. In the case of E15P, the “folding stability dG” value is reported as 0.736 kcal/mol. For L25R, the “folding stability dG” value was -0.578 kcal/mol. With L25Q the “folding stability dG” value was -0.482 kcal/mol. In the case of E41L, the “folding stability dG” value is reported as 0.903 kcal/mol. With P13K the “folding stability dG” value was 0.854 kcal/mol. In the case of P13V, the “folding stability dG” value is reported as 0.451 kcal/mol. In the case of P13H, the “folding stability dG” value is reported as 0.651 kcal/mol. With E16V the “folding stability dG” value was 0.573 kcal/mol. With E16K the “folding stability dG” value was 0.756 kcal/mol. For T1D, the “folding stability dG” value was -0.934 kcal/mol. With F40W the “folding stability dG” value was 0.271 kcal/mol. In the case of F40V, the “folding stability dG” value is reported as 0.436 kcal/mol. With E17D the “folding stability dG” value was 0.564 kcal/mol. In the case of E17K, the “folding stability dG” value is reported as 0.72 kcal/mol. For E17V, the “folding stability dG” value was 0.922 kcal/mol.
